Data as given in US20230265179A1 (TWIST BIOSCIENCE, published 2023).

Each binder was assayed against T1, IL1RL1 over-expressed on Expi293 cells (UniProt Q01638 19-556, limits assumed) (assay: flow cytometry, 100 nM antibody, over-expressing Expi293 / parent cells).
T1 construct: whole, on cells; Target of the flow cytometry MFI ratio (over-expressing cells over parent cells); also called cytokine over-expressing Expi293 cells
T1 sequence (looked up): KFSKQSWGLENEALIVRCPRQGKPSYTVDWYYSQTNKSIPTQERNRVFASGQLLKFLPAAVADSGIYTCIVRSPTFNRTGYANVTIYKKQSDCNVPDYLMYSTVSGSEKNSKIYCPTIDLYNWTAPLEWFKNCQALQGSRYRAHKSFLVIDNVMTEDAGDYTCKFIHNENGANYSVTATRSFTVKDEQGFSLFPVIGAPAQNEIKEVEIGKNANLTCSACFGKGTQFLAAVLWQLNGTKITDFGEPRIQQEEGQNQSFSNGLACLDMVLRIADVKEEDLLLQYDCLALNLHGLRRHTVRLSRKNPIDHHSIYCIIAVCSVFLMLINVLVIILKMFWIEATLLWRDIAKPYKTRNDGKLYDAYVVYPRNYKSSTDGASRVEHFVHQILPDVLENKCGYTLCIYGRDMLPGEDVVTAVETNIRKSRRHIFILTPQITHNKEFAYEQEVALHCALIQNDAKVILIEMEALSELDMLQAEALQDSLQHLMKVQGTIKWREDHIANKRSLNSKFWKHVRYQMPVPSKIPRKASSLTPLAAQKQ
Description: (§1) All incubations and washes were in buffer containing PBS+1% BSA. MFI Ratio is defined by the mean fluorescence intensity (MFI) of the cytokine over-expressing Expi293 cell over the Expi293 parent cell. […] EC50 was calculated in GraphPad Prism.

Row | Binder | 100 nM FACS (MFI Ratio) [MFI ratio]
1 | IL1RL1-91 (Fc fusion, not shown: a dimerising Fc or GST) VHH: EVQLVESGGGLVQPGGSLRLSCAASGGTFGSYAMGWFRQAPGKEREGVAAIYTGGITTYADSVKGRFTISADNSKNTAYLQMNSLKPEDTAVYYCAAFDGYSGSDWGQGTLVTVSS | 475
2 | IL1RL1-89 (Fc fusion, not shown: a dimerising Fc or GST, VHH-Fc on IgG2 Fc) VHH: EVQLVESGGGLVQPGGSLRLSCAASGSIYSLVAMGWFRQAPGKEREAVAGIVSGGSTSYADSVKGRFTISADNSKNTAYLQMNSLKPEDTAVYYCAAVGGATTVTASEWDWGQGTLVTVSS | 340
3 | IL1RL1-88 (Fc fusion, not shown: a dimerising Fc or GST, VHH-Fc on IgG2 Fc) VHH: EVQLVESGGGLVQPGGSLRLSCAASGRTSHGYGGYGMGWFRQAPGKEREEVAAISSSGSSTVYADSVKGRFTISADNSKNTAYLQMNSLKPEDTAVYYCAAIAYEEGVYRWDWGQGTLVTVSS | 339

These binders were tested against T2, IL1RL2 over-expressed on Expi293 cells (UniProt Q9HB29 20-575, limits assumed) (assay: flow cytometry, over-expressing Expi293 vs parent cells, 100 nM antibody;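 also: ratio is mean fluorescence intensity on over-expressing Expi293 cells divided by that measured on parental Expi293 cells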).
T2 construct: whole, on cells; Target of the flow cytometry assay; MFI ratio is over-expressing cells over parent cells
T2 sequence (looked up): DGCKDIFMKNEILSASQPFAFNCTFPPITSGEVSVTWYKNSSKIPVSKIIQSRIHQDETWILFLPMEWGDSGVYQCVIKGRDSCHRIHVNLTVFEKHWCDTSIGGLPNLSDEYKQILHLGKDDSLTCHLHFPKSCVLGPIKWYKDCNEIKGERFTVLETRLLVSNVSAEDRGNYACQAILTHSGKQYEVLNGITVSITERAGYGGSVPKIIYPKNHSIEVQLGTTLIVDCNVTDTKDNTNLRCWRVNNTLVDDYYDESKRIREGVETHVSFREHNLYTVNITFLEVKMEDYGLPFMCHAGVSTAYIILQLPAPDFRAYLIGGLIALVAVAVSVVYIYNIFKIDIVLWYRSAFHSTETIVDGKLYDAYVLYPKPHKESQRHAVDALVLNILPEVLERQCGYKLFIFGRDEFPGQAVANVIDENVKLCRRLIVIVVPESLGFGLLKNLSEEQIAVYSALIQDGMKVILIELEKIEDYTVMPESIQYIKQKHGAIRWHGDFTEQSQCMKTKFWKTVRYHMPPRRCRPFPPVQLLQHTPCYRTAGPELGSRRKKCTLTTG
Description: as §1

Row | Binder | 100 nM FACS (MFI Ratio)
4 | IL1RL2-4 (VHH, VHH-Fc based on IgG2 Fc) VHH: EVQLVESGGGLVQPGGSLRLSCAASGFILREYNMGWFRQAPGKEREFVAAISPSAFTEYADSVKGRFTISADNSKNTAYLQMNSLKPEDTAVYYCAAANEYWVYVNPNRYTWGQGTLVTVSS | 15.7
5 | IL1RL2-54 (VHH, VHH-Fc based on IgG2 Fc) VHH: EVQLVESGGGLVQPGGSLRLSCAASGRYFSDYNMGWFRQAPGKEREFVAAISPSAFTEYADSVKGRFTISADNSKNTAYLQMNSLKPEDTAVYYCAAANEYWVYVNPNRYTWGQGTLVTVSS | 21.1
6 | IL1RL2-10 (VHH, VHH-Fc based on IgG2 Fc) VHH: EVQLVESGGGLVQPGGSLRLSCAASGFTFSNHIMGWFRQAPGKEREWVSGINRDGSTSYADSVKGRFTISADNSKNTAYLQMNSLKPEDTAVYYCAKARQITGWDFDYWGQGTLVTVSS | 12.7
7 | IL1RL2-42 (VHH, VHH-Fc based on IgG2 Fc) VHH: EVQLVESGGGLVQPGGSLRLSCAASGRTFSSYDMGWFRQAPGKEREFVAAIVWIGGRTYYADSVKGRFTISADNSKNTAYLQMNSLKPEDTAVYYCADVNGDWGQGTLVTVSS | 2.47
8 | IL1RL2-44 (VHH, VHH-Fc based on IgG2 Fc) VHH: EVQLVESGGGLVQPGGSLRLSCAASGRSFSTYDMGWFRQAPGKERELVAAISWSGGSTYYADSVKGRFTISADNSKNTAYLQMNSLKPEDTAVYYCADVNGDWGQGTLVTVSS | 0.95
9 | IL1RL2-3 (VHH, VHH-Fc based on IgG2 Fc) VHH: EVQLVESGGGLVQPGGSLRLSCAASGRTVSTMGWFRQAPGKEREWVSTITFNGDHTYYADSVKGRFTISADNSKNTAYLQMNSLKPEDTAVYYCAKAYSSSWPYFDYWGQGTLVTVSS | 1.97
10 | IL1RL2-16 (VHH, VHH-Fc based on IgG2 Fc) VHH: EVQLVESGGGLVQPGGSLRLSCAASGSDFSIKAMGWFRQAPGKEREFVADIYTSTTTNYTNYADSVKGRFTISADNSKNTAYLQMNSLKPEDTAVYYCAAIAYEEGVYRWDWGQGTLVTVSS | 37.6
11 | IL1RL2-32 (VHH, VHH-Fc based on IgG2 Fc) VHH: EVQLVESGGGLVQPGGSLRLSCAASGNDFSIKAMGWFRQAPGKEREFVADIYTSTTTNYTNYADSVKGRFTISADNSKNTAYLQMNSLKPEDTAVYYCAAIAHEEGVYRWDWGQGTLVTVSS | 20.1
12 | IL1RL2-21 (VHH, VHH-Fc based on IgG2 Fc) VHH: EVQLVESGGGLVQPGGSLRLSCAASGRTFSRYAMGWFRQAPGKEREFVAAINWSGDRTYYADSVKGRFTISADNSKNTAYLQMNSLKPEDTAVYYCAVSQPLNYYTYYDARRYDWGQGTLVTVSS | 20.9
13 | IL1RL2-41 (VHH, VHH-Fc based on IgG2 Fc) VHH: EVQLVESGGGLVQPGGSLRLSCAASGGTFSRYAMGWFRQAPGKEREFVAAVNWSGARTYYADSVKGRFTISADNSKNTAYLQMNSLKPEDTAVYYCAVSQPLNYYTYYDARRYDWGQGTLVTVSS | 5.33
14 | IL1RL2-36 (VHH, VHH-Fc based on IgG2 Fc) VHH: EVQLVESGGGLVQPGGSLRLSCAASGRTYNSYSMGWFRQAPGKEREFVAAISWSGEHTYYADSVKGRFTISADNSKNTAYLQMNSLKPEDTAVYYCAVSQPLNYYTYYDARRYDWGQGTLVTVSS | 14
15 | IL1RL2-37 (VHH, VHH-Fc based on IgG2 Fc) VHH: EVQLVESGGGLVQPGGSLRLSCAASGGAFSTVAMGWFRQAPGKEREFVAAISWSRGRTFYADSVKGRFTISADNSKNTAYLQMNSLKPEDTAVYYCAVSQPLNYYTYYDARRYDWGQGTLVTVSS | 16.9
16 | IL1RL2-43 (VHH, VHH-Fc based on IgG2 Fc) VHH: EVQLVESGGGLVQPGGSLRLSCAASGGTFSRYAMGWFRQAPGKEREFVAAISWSGANTYYADSVKGRFTISADNSKNTAYLQMNSLKPEDTAVYYCAVSQPLNYYTYYDARRYDWGQGTLVTVSS | 1.62
17 | IL1RL2-55 (VHH, VHH-Fc based on IgG2 Fc) VHH: EVQLVESGGGLVQPGGSLRLSCAASGYTDSNLWMGWFRQAPGKEREFVASIDWSGRSTYYADSVKGRFTISADNSKNTAYLQMNSLKPEDTAVYYCAANGIESYGWGNRHFNWGQGTLVTVSS | 49.7
18 | IL1RL2-19 (VHH, VHH-Fc based on IgG2 Fc) VHH: EVQLVESGGGLVQPGGSLRLSCAASGYTDSNLWMGWFRQAPGKEREFVASVNWSGKDTYYADSVKGRFTISADNSKNTAYLQMNSLKPEDTAVYYCAANGIESYGWGNRHFNWGQGTLVTVSS | 13.8
19 | IL1RL2-13 (VHH, VHH-Fc based on IgG2 Fc) VHH: EVQLVESGGGLVQPGGSLRLSCAASGYTDSNLWMGWFRQAPGKEREFVGSIDWIPSNIYYADSVKGRFTISADNSKNTAYLQMNSLKPEDTAVYYCAANGIESYGWGNRHFNWGQGTLVTVSS | 11.3
20 | IL1RL2-14 (VHH, VHH-Fc based on IgG2 Fc) VHH: EVQLVESGGGLVQPGGSLRLSCAASGFTFSNYWMGWFRQAPGKEREFVATIPWSGAYTEYADSVKGRFTISADNSKNTAYLQMNSLKPEDTAVYYCAAANEYWVYVNPNRYTWGQGTLVTVSS | 42.1
21 | IL1RL2-39 (VHH, VHH-Fc based on IgG2 Fc) VHH: EVQLVESGGGLVQPGGSLRLSCAASGRAFSSTVMGWFRQAPGKEREFVAGIGWTDAYTEYADSVKGRFTISADNSKNTAYLQMNSLKPEDTAVYYCAAANEYWVYVNPNRYTWGQGTLVTVSS | 15.3
22 | IL1RL2-8 (VHH, VHH-Fc based on IgG2 Fc) VHH: EVQLVESGGGLVQPGGSLRLSCAASGFTYSSNYMGWFRQAPGKEREFVAGISWTDAYTEYADSVKGRFTISADNSKNTAYLQMNSLKPEDTAVYYCAAANEYWVYVNPNRYTWGQGTLVTVSS | 12.8
23 | IL1RL2-25 (VHH, VHH-Fc based on IgG2 Fc) VHH: EVQLVESGGGLVQPGGSLRLSCAASGLPFNNVYMGWFRQAPGKEREFVAAVTWSGAYTEYADSVKGRFTISADNSKNTAYLQMNSLKPEDTAVYYCAAANEYWVYVNPNRYTWGQGTLVTVSS | 16.5
24 | IL1RL2-49 (VHH, VHH-Fc based on IgG2 Fc) VHH: EVQLVESGGGLVQPGGSLRLSCAASGFTFSTYWMGWFRQAPGKEREFVATIPWIGAHTEYADSVKGRFTISADNSKNTAYLQMNSLKPEDTAVYYCAEANEYWGYVNPNRYTWGPGTLVTVSH | 190

Each binder was assayed against T3, IL1RL1 (UniProt Q01638 19-328, limits assumed) (assay: SPR (Carterra LSA), antibody amine-coupled, 1:1 model;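 also: HC30M sensor chip at 25 °C in HBS-TE, analyte at rising concentrations in buffer containing 0.5 mg/mL BSA, 5 min association then 15 min dissociation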).
T3 construct: SPR analyte
T3 sequence (looked up): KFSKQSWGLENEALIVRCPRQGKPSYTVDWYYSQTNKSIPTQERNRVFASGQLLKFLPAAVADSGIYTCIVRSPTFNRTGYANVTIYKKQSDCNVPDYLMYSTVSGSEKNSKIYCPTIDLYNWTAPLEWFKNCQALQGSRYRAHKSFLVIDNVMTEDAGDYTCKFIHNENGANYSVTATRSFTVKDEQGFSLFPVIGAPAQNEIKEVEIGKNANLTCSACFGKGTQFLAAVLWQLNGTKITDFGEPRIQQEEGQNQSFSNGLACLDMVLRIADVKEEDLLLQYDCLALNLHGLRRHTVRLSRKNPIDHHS
Description: SPR experiments were performed on a Carterra LSA SPR biosensor equipped with a HC30M chip at 25° C. in HBS-TE. Antibodies were diluted to 10 μg/mL and amine-coupled to the sensor chip by EDC/NHS activation, followed by ethanolamine HCl quenching. Increasing concentrations of analyte were flowed over the sensor chip in HBS-TE with 0.5 mg/mL BSA with 5-minute association and 15-minute dissociation. Following each injection cycle the surface was regenerated with 2× 30-second injections of IgG elution buffer (Thermo). Data were analyzed in Carterra's Kinetics Tool software with 1:1 binding model.

Row | Binder | Kd [nM] | koff [s⁻¹] | kon [M⁻¹ s⁻¹]
25 | IL1RL1-91 (Fc fusion, not shown: a dimerising Fc or GST) VHH: EVQLVESGGGLVQPGGSLRLSCAASGGTFGSYAMGWFRQAPGKEREGVAAIYTGGITTYADSVKGRFTISADNSKNTAYLQMNSLKPEDTAVYYCAAFDGYSGSDWGQGTLVTVSS | 1.85 | 0.000261 | 141000
26 | IL1RL1-89 (Fc fusion, not shown: a dimerising Fc or GST, VHH-Fc on IgG2 Fc) VHH: EVQLVESGGGLVQPGGSLRLSCAASGSIYSLVAMGWFRQAPGKEREAVAGIVSGGSTSYADSVKGRFTISADNSKNTAYLQMNSLKPEDTAVYYCAAVGGATTVTASEWDWGQGTLVTVSS | 0.781 | 0.000388 | 496000
27 | IL1RL1-88 (Fc fusion, not shown: a dimerising Fc or GST, VHH-Fc on IgG2 Fc) VHH: EVQLVESGGGLVQPGGSLRLSCAASGRTSHGYGGYGMGWFRQAPGKEREEVAAISSSGSSTVYADSVKGRFTISADNSKNTAYLQMNSLKPEDTAVYYCAAIAYEEGVYRWDWGQGTLVTVSS | 0.529 | 0.000104 | 197000
